Measurements: US7795217B2, “Methods and compositions for cell-cycle regulation” (priority 2005, dated 2010)

T1: KAP (Homo sapiens, UniProt Q16667)
T1 construct: Full-length KAP protein was coupled to a sensor chip CM-5 shell; made in house
T1 sequence (Q16667 1-212): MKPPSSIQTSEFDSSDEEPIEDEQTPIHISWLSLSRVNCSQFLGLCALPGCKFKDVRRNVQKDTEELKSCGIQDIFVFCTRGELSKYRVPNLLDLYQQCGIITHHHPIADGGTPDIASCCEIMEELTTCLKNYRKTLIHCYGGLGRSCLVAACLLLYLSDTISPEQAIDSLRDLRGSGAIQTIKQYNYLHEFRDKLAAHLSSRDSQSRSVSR

T2: KAP phosphatase (Homo sapiens, UniProt Q16667)
T2 construct: made in house
T2 sequence (Q16667 1-212): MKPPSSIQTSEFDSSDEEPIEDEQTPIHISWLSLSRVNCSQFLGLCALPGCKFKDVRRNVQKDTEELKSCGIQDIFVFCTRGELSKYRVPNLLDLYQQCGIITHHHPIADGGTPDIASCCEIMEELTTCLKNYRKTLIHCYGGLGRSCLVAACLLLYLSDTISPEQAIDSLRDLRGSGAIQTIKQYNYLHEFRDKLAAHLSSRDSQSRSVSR


Tests used:
KAP [1] = target: T1, KAP; assay: Circular dichroism spectroscopy of KAP; details: 5 μM KAP, 50 μM HTm4 C-peptide, 250 to 320 nm
Protocol: Circular Dichroism (CD) spectroscopic measurements were performed on a Jasco J-700 (Jasco, Japan). Spectra measurements were recorded from 250 to 320 nm. The spectra change of KAP was measured by comparing two different KAP samples in the same solution (20 mM Tris-HCl, pH 7.2, 0.15 M NaCl). Sample A contained 5 μM KAP and an excess amount of HTm4 C-peptide (50 μM). The contents of sample B were identical to those in sample A, except for HTm4 C-peptide. The difference in spectra was further converted to parameter (mean residue ellipticity) and plotted on the graph in FIG. 4.
Spectra measurements were recorded from 250 to 320 nm. The spectra change of KAP was measured by comparing two different KAP samples in the same solution (20 mM Tris-HCl, pH 7.2, 0.15 M NaCl). Sample A contains 5 μM KAP and an excess amount of HTm4 C-peptide (50 μM). Sample B was formulated as Sample A, with the exception of the HTm4 C-peptide. The difference in spectra was further converted to parameter (mean residue ellipticity) and plotted.

KAP phosphatase [2] = target: T3, KAP phosphatase (Homo sapiens, UniProt Q16667); assay: KAP phosphatase activity assay, hydrolysis of pNPP; type: biochemical
Protocol: KAP phosphatase activity was examined by the detection of hydrolysis of p-nitrophenyl phosphate (pNPP) (WAKO) as described previously (Song, H., Hanlon, N., Brown, N. R., Noble, M. E., Johnson, L. N., and Barford, D. (2001) Mol. Cell. 7, 615-626). The time course of phosphatase activity for KAP was examined. 20 μl of reaction mixture containing 50 mM Tris-HCl, pH 7.5, 0.15 M NaCl, 2 mM DTT, 0.5 mM EDTA, 3 mM pNPP, 40 μM KAP, 4 μM cdk cyclin A (Upstate Biotechnology), and 20 μM HTm4 was incubated at 30° C. for the indicated times. The reaction was halted by the addition of 0.1 M NaOH. The phosphatase activity in 5 μl of each sample was measured as A410. To investigate the effect of HTm4 on KAP, KAP phosphatase activity was assessed with different HTm4 concentrations in the presence of pNPP. Reaction velocity was measured in the presence of 0.0025-20 μM HTm4.
(§1) 20 μl of reaction mixture containing 50 mM Tris-HCl, pH 7.5, 0.15 M NaCl, 2 mM DTT, 0.5 mM EDTA, 3 mM pNPP, 40 μM KAP, 4 μM cdk2.cyclin A, and 20 μM HTm4 was incubated at 30° C. for the indicated times. The reaction was halted by the addition of 0.1 M NaOH. The phosphatase activity in 5 μl of each sample was measured at 410 nm. […] KAP phosphatase activity was assessed in the presence of increasing amounts of HTm4 using pNPP as the KAP substrate. The reaction velocity was measured in the presence of 0.0025-20 μM HTm4. All reaction mixtures contained 40 μM KAP and 4 μM active cdk2.cyclin A. Reactions were repeated in triplicate. Their average values and standard deviations are shown. […] KAP phosphatase activity was assessed using the Ser/Thr Assay Kit 1 with different concentrations of active cdk2.cyclin A (from 4 to 20 μM) as the substrate in the presence or absence of 40 μM HTm4. […] KAP phosphatase activity was assessed using the Ser/Thr Assay Kit 1 with different concentrations of active cdk2.cyclin A (from 4 to 20 μM) as the substrate in the presence or absence of 40 μM HTm4.

KAP [3] = target: T1, KAP; assay: Surface plasmon resonance (BioSensor Biacore) protein interaction assay; type: binding; details: for binding to KAP-coupled sensor chip (increase in mass): versus uncoupled or nonspecifically coupled chips
Protocol: The immobilization of proteins to sensor chips (CM-5 chip) was performed using a carbodiimide covalent linkage protocol (Amersham Biosciences). KAP was coupled to the sensor chip at 2,800 resonance units (RU). Nonspecific human immunoglobin was coupled to the surface of the sensor chip (anti-β 2m antibody BBM.1) at 2,900 RU. Protein interaction assays were carried out using the BioSensor Biacore 2000 (Biacore). An HTm4 C-terminal peptide composed of 22 amino acids ([…] SEQ ID NO:3) was synthesized. Either full-length HTm4 protein (20 μM), or HTm4 C-terminal peptide (1 mM) in 50 mM HEPES containing 1 mM EDTA, 1 mM DTT, 5% glycerol, and 0.1% Tween 20 was examined at a flow rate of 10 μl/min.
Surface plasmon resonance was used to detect direct binding of purified HTm4 to KAP. Full-length KAP protein was coupled to a sensor chip CM-5 shell (Amersham Biosciences).
The interactions of HTm4 with immobilized proteins were analyzed on a sensor chip (CM-5) cell. KAP was coupled to the surface of the sensor chip at 2,800 RU; nonspecific human immunoglobulin (NS) was coupled to the surface of the sensor chip (anti-β2m antibody BBM.1) at 2,900 RU; UC, uncoupled sensor chip. Binding of 20 μM full-length HTm4 protein in 50 mM HEPES containing 1 mM EDTA, 1 mM DTT, 5% glycerol, and 0.1% Tween 20 was examined at a flow rate of 10 μl/min. […] The interactions of HTm4 with immobilized proteins were analyzed on a sensor chip (CM-5) cell. KAP was coupled to the surface of the sensor chip at 2,800 RU; nonspecific human immunoglobulin was coupled on the surface of the sensor chip (anti-β 2m antibody BBM.1) at 2,900 RU. Binding of 1 mM HTm4 C-terminal peptide in 50 mM HEPES containing 1 mM EDTA, 1 mM DTT, 5% glycerol, and 0.1% Tween 20 was examined at a flow rate of 10 μl/min. Responses from uncoupled cells were subtracted.

KAP phosphatase [4] = target: T3, KAP phosphatase; assay: Kinetic measurements of KAP phosphatase with active cdk2.cyclin A as substrate (Lineweaver-Burk plot); type: biochemical; details: 40 μM HTm4, active cdk2.cyclin A 4 to 20 μM as substrate
Protocol: To investigate the effect of HTm4 on KAP, the initial reaction velocity of KAP was assessed using different concentrations of active cdk2.cyclin A as the substrate in the presence or absence of HTm4. The results were analyzed further using a Lineweaver-Burk plot.
as §1

[5] = target: KAP.cdk2.cyclin A complex (Homo sapiens, UniProt Q16667); assay: Cyclin A dissociation assay; type: biochemical; details: 1 or 10 μM HTm4 without His tag, His-tagged KAP pull-down
Protocol: The status of the cdk2.cyclin A complex was examined in the presence and absence of HTm4. […] The bound fractions were resolved by SDS-PAGE and Western blotted for the presence of cyclin A (Santa Cruz Biotechnology). An alkaline phosphatase conjugated to anti-rabbit IgG (EY Laboratory) was used to visualize the amount of bound cyclin A present in the KAP cdk2 complex. […] After incubating at room temperature for 5 min, either 10 μl of 10 μM HTm4 (without His tag) or its buffer was added to the reaction mixture. After incubating at room temperature for 5 min, 5 μl of nickel magnet beads was added to each mixture. […] The gel was stained with a silver staining kit (ATTO).
After that, 5 μl of nickel magnet beads was added. Bound fractions were electrophoresed by SDS-PAGE and then detected by Western blotting with anti-cyclin A antibody as the primary antibody, and alkaline phosphatase-conjugated anti-rabbit IgG was used as the secondary antibody. The band of cyclin A is indicated with an arrow. […] After incubation at room temperature for 5 min, 10 μl of 10 μM HTm4 (without His tag) or its buffer was added to the mixture and allowed to incubate at room temperature for 5 mins. 5 μl of nickel magnet beads was added to each mixture. […] The gel was then silver stained. Bands of cyclin A, cdk2, and KAP are indicated with arrows.

KAP phosphatase [6] = target: T2, KAP phosphatase; assay: KAP dephosphorylation of peptide or protein substrates (Ser/Thr Phosphatase Assay Kit 1); type: biochemical; details: 30 min at 30° C.
Protocol: KAP dephosphorylation of phosphorylated proteins or peptide substrates was examined using the Ser/Thr Phosphatase Assay Kit 1 (Upstate Biotechnology) according to the manufacturer's instructions. Phosphorylated Thr^160 of cdk2 and K-R-pT-I-R-R peptide were used as substrates for the assay. Concentrations of KAP and HTm4 were both 20 μM; concentrations of p-cdk2 and peptide substrates (K-R-pT-I-R-R) were 10 and 25 μM, respectively. Reactions were performed in pNPP Ser/Thr Assay Buffer, containing 50 mM Tris-HCl, pH 7.0, and 100 μM CaCl2. To examine the importance of the HTm4 C-terminal region and to confirm the KAP phosphatase activity enhancement effect of HTm4, an HTm4 C-terminal peptide composed of 22 amino acids ([…] SEQ ID NO:3) was synthesized. The phosphatase enhancement activity of the HTm4 C-terminal region was examined using the assay protocol described above.
KAP dephosphorylation of phosphorylated proteins or peptide substrates was examined using the Ser/Thr Phosphatase Assay Kit 1 according to the manufacturer's instructions. Phosphorylated Thr^160 of cdk2 (p-cdk2) and K-R-pT-I-R-R peptides (SEQ ID NO:4) were used as substrates for the assay. […]
Phosphorylated threonine 160 from cdk2.cyclin A, active, and phosphopeptide (K-R-pT-I-R-R) were used as substrates to assess KAP activity. […] The reaction was allowed to proceed for 30 min at 30° C., and absorbance was measured at 650 nm.

| Molecule | CD difference spectrum of KAP with versus without C-peptide (KAP [1]) | enhancement effect on KAP phosphatase activity compared with HTm4 wild-type protein (KAP phosphatase [2]; C-terminal peptide at 0.1 mM, pNPP substrate) | binding to KAP-coupled sensor chip (increase in mass) (KAP [3]; 1 mM HTm4 C-terminal peptide, flow rate 10 μl/min) | Vmax of KAP phosphatase activity in the presence of HTm4 (KAP phosphatase [4]) [nM/min] | Km (KAP phosphatase [4]; read-out: Km of KAP phosphatase activity in the presence of HTm4) [µM] | dissociation of cyclin A from the KAP.cdk2.cyclin A complex [5] | increase of dephosphorylating activity of KAP toward phosphorylated cdk2 (KAP phosphatase [6]; 20 μM KAP and HTm4, 10 μM p-cdk2 in the cdk2.cyclin A complex) | KAP dephosphorylation of synthesized phosphopeptide K-R-pT-I-R-R (KAP phosphatase [6]; 20 μM KAP and HTm4, 25 μM peptide substrate) | KAP phosphatase activity toward pNPP substrate (KAP phosphatase [2]; 20 μM HTm4, wild-type KAP, 4 μM active cdk2.cyclin A) | effect of increasing HTm4 on KAP phosphatase activity (reaction velocity) (KAP phosphatase [2]; 0.0025-20 μM HTm4, pNPP substrate, 40 μM KAP, 4 μM active cdk2.cyclin A) | binding to KAP-coupled sensor chip (increase in mass) (KAP [3]; 20 μM full-length HTm4, flow rate 10 μl/min) | KAP/HTm4 selective binding after premixing HTm4 with KAP (KAP [3]; premixed with KAP, data not shown) |
| --- | --- | --- | --- | --- | --- | --- | --- | --- | --- | --- | --- | --- |
| CNANCCNSREEISSPPNSV (Synthetic HTm4 C-terminal Peptide) [HTm4 C-peptide] | spectral change was found at 270-280 nm | comparable enhancement effect | immediate increase in mass was observed |  |  |  |  |  |  |  |  |  |
| HTm4: Recombinant human HTm4 (MS4A3) full-length protein purified from E. coli, His tag cleaved (protein, listed as Homo sapiens) MASHEVDNAELGSASAHGTPGSEAGPEELNTSVYQPIDGSPDYQKAKLQVLGAIQILNAAMILALGVFLGSLQYPYHFQKHFFFFTFYTGYPIWGAVFFCSSGTLSVVAGIKPTRTWIQNSFGMNIASATIALVGTAFLSLNIAVNIQSLRSCHSSSESPDLCNYMGSISNGMVSLLLILTLLELCVTISTIAMWCNANCCNSREEISSPPNSV |  |  |  | 17.5 | 8.33 | dissociated from the complex in a dose-dependent manner | more than 6 fold | potentiates dephosphorylation | significantly enhanced | linearly increased | immediate increase in mass was observed | abolished |
